Test results from patent US20250257112A1.

molecular target: PTH receptor ("PTHIR"); assay: cell-based or functional assay

cAMP potency (EC50) [nM] | Substance
0.28 | PTH(1-84)-Fc with F34A, V35S (Fc fusion)
0.24 | PTH-67, PTH(1-64)-[F34A, V35S]-hFcLALA-deltaLys (Fc fusion)
0.21 | PTH-68, PTH(1-54)-[F34A, V35S]-hFcLALA-deltaLys (Fc fusion)
0.24 | PTH-66, PTH(1-74)-[F34A, V35S]-hFcLALA-deltaLys (Fc fusion)
